The results in this text go back to US20240294650A1 (Alector, published 2024).

The target of experiment [1] is T1, mouse MerTK overexpressed on CHO cells (mouse, UniProt Q60805 19-994).
T1 construct: whole, on cells; also called CHO-muMerTK OE
T1 sequence (looked up): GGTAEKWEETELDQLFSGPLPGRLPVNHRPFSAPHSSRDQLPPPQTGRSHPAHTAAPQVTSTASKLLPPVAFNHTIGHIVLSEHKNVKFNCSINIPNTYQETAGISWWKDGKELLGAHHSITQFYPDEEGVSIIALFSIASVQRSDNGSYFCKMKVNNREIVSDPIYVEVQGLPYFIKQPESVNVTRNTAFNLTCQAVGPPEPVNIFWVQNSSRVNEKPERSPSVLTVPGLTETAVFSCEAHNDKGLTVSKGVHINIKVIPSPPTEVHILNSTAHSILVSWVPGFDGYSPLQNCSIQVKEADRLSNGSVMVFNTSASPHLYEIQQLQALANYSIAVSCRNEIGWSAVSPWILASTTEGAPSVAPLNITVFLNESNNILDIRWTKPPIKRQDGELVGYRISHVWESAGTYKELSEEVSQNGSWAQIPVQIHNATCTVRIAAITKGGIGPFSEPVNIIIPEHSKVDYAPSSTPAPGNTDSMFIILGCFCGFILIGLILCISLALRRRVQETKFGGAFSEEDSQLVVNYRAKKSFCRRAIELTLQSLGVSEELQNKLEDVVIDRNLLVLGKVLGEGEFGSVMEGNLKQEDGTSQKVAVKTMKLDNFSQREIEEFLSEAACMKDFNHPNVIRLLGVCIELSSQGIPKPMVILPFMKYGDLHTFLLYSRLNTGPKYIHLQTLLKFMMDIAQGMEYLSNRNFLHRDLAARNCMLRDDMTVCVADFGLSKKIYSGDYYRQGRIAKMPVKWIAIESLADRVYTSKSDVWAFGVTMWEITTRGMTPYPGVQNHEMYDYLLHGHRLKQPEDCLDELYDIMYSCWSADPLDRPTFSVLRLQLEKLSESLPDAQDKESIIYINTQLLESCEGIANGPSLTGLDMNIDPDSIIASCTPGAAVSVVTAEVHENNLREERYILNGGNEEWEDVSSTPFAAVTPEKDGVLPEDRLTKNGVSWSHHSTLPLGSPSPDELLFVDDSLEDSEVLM
Put plainly: FACS, CHO-muMerTK OE cells, 10 ug/ml. A digest of the protocol: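 Cells (100,000/well) incubated with antibodies on ice for 60 min, then detected with PE anti-human IgG plus Fc block on ice for 30 min. A375 and parental CHO cells served as negative controls. Read-out is flow cytometry MFI.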

Experiment [2] addresses T2, Recombinant human MerTK-human Fc Chimera protein (human, UniProt Q12866 26-499, limits assumed).
T2 construct: bought construct; also called MerTK-Fc (R&D systems, Cat #391-MR-100)
T2 sequence: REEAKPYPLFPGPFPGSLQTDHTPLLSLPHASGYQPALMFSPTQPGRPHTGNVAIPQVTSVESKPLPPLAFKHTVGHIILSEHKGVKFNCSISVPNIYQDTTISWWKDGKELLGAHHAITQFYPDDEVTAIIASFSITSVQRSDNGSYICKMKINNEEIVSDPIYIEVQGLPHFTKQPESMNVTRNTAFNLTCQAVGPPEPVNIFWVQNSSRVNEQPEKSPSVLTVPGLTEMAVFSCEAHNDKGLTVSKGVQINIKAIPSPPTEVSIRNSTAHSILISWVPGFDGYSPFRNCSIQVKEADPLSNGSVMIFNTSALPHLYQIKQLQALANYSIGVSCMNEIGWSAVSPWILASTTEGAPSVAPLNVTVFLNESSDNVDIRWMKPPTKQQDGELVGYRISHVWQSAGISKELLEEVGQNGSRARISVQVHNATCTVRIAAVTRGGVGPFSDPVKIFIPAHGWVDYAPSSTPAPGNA
Put plainly: blocking ELISA, Gas6-His on MerTK-Fc, Ab 66.6 nM, isotype=100%. The protocol: Briefly, rabbit anti-human IgG antibody (Jackson ImmunoResearch, Cat #309-005-008) was coated at 2 μg/ml onto high-protein binding plates at 4° C. overnight. After washing with 0.05% Tween20 in PBS three times, 5% BSA in PBS was added for 1 hour. Recombinant human MerTK-human Fe Chimera protein (R&D systems, Cat #391-MR-100) was added at 2 μg/ml for 1 hour and plates were washed before the addition of 40 μl of anti-MerTK hybridoma supernatants and 40 μl of His tag-conjugated recombinant Gas6 (R&D systems, Cat #885-GSB-050) at 3 μg/ml or His tag-conjugated recombinant ProS (R&D systems, Cat #9489-PS-100) at 20 μg/ml. After a further incubation for 1 hour, plates were washed and incubated for 1 hour with HRP-conjugated anti-6×His tagged antibody (Abcam, Cambridge, MA, Cat #ab1187). Plates were then washed and an HRP substrate, TMB, was added to develop the plates. The reaction was stopped by adding 50 μl 2N H₂SO₄ and the OD was measured using a spectrophotometer (BioTek).
Anti-MerTK antibodies were titrated to a final concentration from 66.6 nM to 4 pM and tested against anti-human MerTK antibody M6 (disclosed in WO2016/106221) or isotype control antibody.
A general note: ELISA stands for enzyme-linked immunosorbent assay.

B1: MTK-225 (antibody, human IgG1, V domains shown)
VH: EVQLQQSGPELVKPGASVKIFCKASGYTFTAYNMDWVKQSHGKSLEWIGDINPNNGGTIYNQKFKGKATLTVDKSSSTAYMELRSLTSEDTAVYYCARRRRYGNTYYWYFDVWGTGTTVTVSS
VL: DIQMTQSPASLSVSVGETVTITCRASENIYSSLAWYQQKQGKSPQLLVYAATNLADGVPSRFSGSGSGTQFYLKINGLQSEDFGSYYCQHFWGTSYTFGGGTKLEIK
In experiment [1], B1 returned an MFI of 285 MFI. In addition, the “Percent Gas6 ligand binding” value in experiment [2] worked out at 120%.

B2: MTK-207 (antibody, human IgG1, V domains shown)
VH: QVQLKESGPGLVAPSQSLSITCTVSGISLTSYGVSWVRQPPGKGLEWLGIIWGDGSTNYHSALISRLSISKDNSKSQVFLKLNSLQTDDTATYYCAKGRYGNYEDWYFDVWGTGTTVTVSS
VL: DIQMTQSPASLSASVGETVTITCRASGNIHNYLAWYQQKQGKSPQLLVYNAKTLAAGVPSRFSGSGSGTQYSLKINSLQPEDFGSYYCQHFWSIPLTFGAGTKLELK
In experiment [1], B2 came in with an MFI of 279 MFI. For the same molecule, in experiment [2], the “Percent Gas6 ligand binding” value turned out to be 116%.

B3: MTK-221 (antibody, human IgG1, V domains shown)
VH: QVTLKESGPGMLQSSQTLSLTCSFSGFSLSTSGMGVSWIRQPSGKGLEWLAHIYWDDDKRYNTSLQSRLTISKDTSRNQVFLKITSVDTADTATYFCGRLGAYSAFPYYFDYWGQGTTLTVSS
VL: DIQMTQSPSSLSASLGGKVTITCKASQDIHKHIAWYQHKPGKGPRLLIHYTSTLQPGIPSRFSGSGSGRDYSFSISNLEPEDLATYYCLQYDNLWTFGGGTKLEIK
On to B3, for which the MFI in experiment [1] is 374 MFI. Also, in experiment [2], the “Percent Gas6 ligand binding” value is 106%.

B4: MTK-208 (antibody, human IgG1, V domains shown)
VH: QVQLQQPGAELVVPGASVRLSCKASGYTFINYWMHWVKQRPGQGLEWIGEIDPSDSYANYNQKFKDKSTLSLDKSSSTAYMQLSSLTSEDSAVYYCARCDYYGRLDYWGQGTTLTVSS
VL: QVVLTQSPAIMSASPGEKVTITCSASSSVSYMLWFQQKPGTSPKLWIYSTSNLASGVPARFSGSGSGTSYSLTISRLEAEDAATYYCQQRSSYPPITFGAGTKLELK
In experiment [1], B4 had an MFI of 329 MFI. Further, the “Percent Gas6 ligand binding” value in experiment [2] came out at 107%.
